Assay results taken from patent publication US20230192839A1 (published 2023).

Tests used:
human CD33 antigen [1] = molecular target: T1, human CD33 antigen (human, UniProt P20138 18-259, limits assumed); assay: SPR (Biacore T200), 37 C; KD at 10 uM MTX / KD at 0 uM MTX
T1 construct: whole entry named; also called Siglec-3
Method: (§1) All binding kinetics analysis was performed on label-free Biacore surface plasmon biosensors (Biacore T200™ from GE Life Sciences) at 37° C. in 10 mM Hepes pH 7.4, 150 mM NaCl, 0.05% Tween-20 (HBST+), with or without 10 µM MTX. The Biacore data were processed in Biacore T200 Evaluation Software, and the data were double-referenced (Myszka, 1999, J Mol Recognit 12(5):279-284) and fit globally to a simple Langmuir with mass transport model to determine the equilibrium dissociation constant, KD, from the ratio of the kinetic rate constants (KD = koff/kₒₙ). In some cases the binding of antigen was very low (or not detectable) in the presence of 10 µM MTX and as a result kinetic rate constants could not be accurately determined. In these cases, a KD (or KD limit) was estimated based on the binding response at the highest analyte concentration tested or based on the typical limit of detection for a Biacore T200.

human CD33 antigen [2] = molecular target: T1, human CD33 antigen; assay: SPR (Biacore T200), 37 C, scFv-Fc, 10 uM MTX; KD estimated, rate constants not determined
Method: as §1
(§2) “*”: For interactions where kₒₙ and koff are reported, the KD was calculated using koff/kₒₙ.

human CD33 antigen [3] = molecular target: T1, human CD33 antigen; assay: SPR (Biacore T200), 37 C, scFv-Fc, 0 uM MTX
Method: as §1

[4] = molecular target: T2, human epidermal growth factor receptor antigen (human, UniProt P00533 25-645, limits assumed); assay: SPR (Biacore T200), 37 C, scFv-Fc, 10 uM MTX
T2 construct: whole entry named; also called EGFR
Method: as §1
(§3) The first 4 rounds of panning used biotinylated EGFR antigen captured on streptavidin or neutravidin coated 96-well plates. […] 1536 clones were randomly chosen from the 4th and 5th round of panning against the EGFR antigen and their binding specificity determined by phage ELISA.
as §2

[5] = molecular target: T2, human epidermal growth factor receptor …; assay: SPR (Biacore T200), 37 C; KD at 10 uM MTX / KD at 0 uM MTX
Method: as §1, §3

[6] = molecular target: T2, human epidermal growth factor receptor …; assay: SPR (Biacore T200), 37 C, scFv-Fc, 0 uM MTX
Method: as §1, §3

T1 sequence (P20138 18-259 limits assumed): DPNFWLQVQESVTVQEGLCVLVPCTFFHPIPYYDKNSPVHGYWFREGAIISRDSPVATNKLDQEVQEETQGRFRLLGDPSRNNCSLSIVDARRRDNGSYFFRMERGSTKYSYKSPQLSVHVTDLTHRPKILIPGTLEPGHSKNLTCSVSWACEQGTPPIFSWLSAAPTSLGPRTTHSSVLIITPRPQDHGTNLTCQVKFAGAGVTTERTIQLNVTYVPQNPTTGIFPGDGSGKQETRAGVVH

| Binder | Ratio: KD with MTX / KD without MTX (human CD33 antigen [1]) | Kd (human CD33 antigen [2]) [nM] | Kd (human CD33 antigen [3]) [nM] | koff (human CD33 antigen [3]) [s⁻¹] | kon (human CD33 antigen [3]) [M⁻¹ s⁻¹] | Kd [4] [nM] | koff [4] [s⁻¹] | kon [4] [M⁻¹ s⁻¹] | Ratio: KD with MTX / KD without MTX [5] | Kd [6] [nM] | koff [6] [s⁻¹] | kon [6] [M⁻¹ s⁻¹] |
| --- | --- | --- | --- | --- | --- | --- | --- | --- | --- | --- | --- | --- |
| P01_A09 scFv-Fc fusion (scFv, V domains shown, Tested as scFv-Fc fusion) VH: QVQLVESGGGLVQAGGSLRLSCAASRRSSRSWAMHWVRQAPGKGLEWVAVISYDGRLKYYADSVKGRFTISRDNAEYLVYLQMNSLRAEDTAVYYCAAERPTSDGSTGGMDVWGQGTLVTVSS VL: DIQMTQSPSSLSASVGDRVTITCRASQSISSYLNWYQQKPGKAPKLLIYGASTLQSGVPSRFSGSGSGTDFTLTISSLQPEDFATYYCQQSYSSGTFGQGTKVEIK | 8.5 | 1300 | 154 | 0.017 | 110000 | – | – | – | – | – | – | – |
| P02_E11 scFv-Fc fusion (scFv, V domains shown, Tested as scFv-Fc fusion) VH: QVQLVESGGGLVQAGGSLRLSCAASRRSSRSWAMHWVRQAPGKGLEWVAVISYDGRLKYYADSVKGRFTISRDNAEYLVYLQMNSLRAEDTAVYYCAAEASTDNGLDYWGQGTLVTVSS VL: DIQMTQSPSSLSASVGDRVTITCRASQTISRHLNWYQQKPGKAPKLLIYSASSLASGVPSRFSGSGSGTDFTLTISSLQPEDFATYYCQQSHSAGTFGQGTKVEIK | 221 | 14600 | 66 | 0.0038 | 58000 | – | – | – | – | – | – | – |
| P03_A01 scFv-Fc fusion (scFv, V domains shown, Tested as scFv-Fc fusion) VH: QVQLVESGGGLVQAGGSLRLSCAASRRSSRSWAMHWVRQAPGKGLEWVAVISYDGRLKYYADSVKGRFTISRDNAEYLVYLQMNSLRAEDTAVYYCAAETGSVGLDYWGQGTLVTVSS VL: DIQMTQSPSSLSASVGDRVTITCRASQGISTYLNWYQQKPGKAPKLLIYGATSLESGVPSRFSGSGSGTDFTLTISSLQPEDFATYYCQQGYSQGTFGQGTKVEIK | 37 | 4270 | 115 | 0.0057 | 50000 | – | – | – | – | – | – | – |
| P02_H01 scFv-Fc fusion (scFv, V domains shown, Tested as scFv-Fc fusion) VH: QVQLVESGGGLVQAGGSLRLSCAASRRSSRSWAMHWVRQAPGKGLEWVAVISYDGRLKYYADSVKGRFTISRDNAEYLVYLQMNSLRAEDTAVYYCAAGSGGGDGLDVWGQGTLVTVSS VL: DIQMTQSPSSLSASVGDRVTITCRASQTISSYLNWYQQKPGKAPKLLIYSSSTLQGGVPSRFSGSGSGTDFTLTISSLQPEDFATYYCQQSYSSGTFGQGTKVEIK | 3.3 | 4340 | 1320 | 0.037 | 28000 | – | – | – | – | – | – | – |
| P05_A11 scFv-Fc fusion (scFv, V domains shown, Tested as scFv-Fc fusion) VH: QVQLVESGGGLVQAGGSLRLSCAASRRSSRSWAMHWVRQAPGKGLEWVAVISYDGRLKYYADSVKGRFTISRDNAEYLVYLQMNSLRAEDTAVYYCAASDDADIFDDYSYGAMDYWGQGTLVTVSS VL: QSVLTQPPSASGTPGQRVTISCSGSSSNIGRNYVYWYQQLPGTAPKLLIYMTSQRPSGVPDRFSGSKSGTSASLAISGLRSEDEADYYCASWDDNLRAWVFGTGTKLTVL | – | – | – | – | – | 580 | 0.05 | 87000 | 2.5 | 235 | 0.028 | 120000 |
| P01_F02 scFv-Fc fusion (scFv, V domains shown, Tested as scFv-Fc fusion) VH: QVQLVESGGGLVQAGGSLRLSCAASRRSSRSWAMHWVRQAPGKGLEWVAVISYDGRLKYYADSVKGRFTISRDNAEYLVYLQMNSLRAEDTAVYYCAADVESALAYGEPYHHMDVWGQGTLVTVSS VL: QSVLTQPPSASGTPGQRVTISCSGSSSNIGRNYVYWYQQLPGTAPKLLIYRTSQRPSGVPDRFSGSKSGTSASLAISGLRSEDEADYYCATWDDSLSGWVFGTGTKLTVL | – | – | – | – | – | – | – | – | > 50 | 188 | 0.011 | 61000 |
| P01_B06 scFv-Fc fusion (scFv, V domains shown, Tested as scFv-Fc fusion) VH: QVQLVESGGGLVQAGGSLRLSCAASRRSSRSWAMHWVRQAPGKGLEWVAVISYDGRLKYYADSVKGRFTISRDNAEYLVYLQMNSLRAEDTAVYYCAADTSMFASYDPMDVWGQGTLVTVSS VL: QSVLTQPPSASGTPGQRVTISCSGSSSNIGRNYVNWYQQLPGTAPKLLIYRDDHRPSGVPDRFSGSKSGTSASLAISGLRSEDEADYYCASWDDTLSGWVFGTGTKLTVL | – | – | – | – | – | 256 | 0.026 | 100000 | 1.1 | 230 | 0.024 | 100000 |

The remaining lines, values ahead:

| Ratio: KD with MTX / KD without MTX (human CD33 antigen [1]) | Kd (human CD33 antigen [2]) [nM] | Kd (human CD33 antigen [3]) [nM] | koff (human CD33 antigen [3]) [s⁻¹] | kon (human CD33 antigen [3]) [M⁻¹ s⁻¹] | Kd [4] [nM] | koff [4] [s⁻¹] | kon [4] [M⁻¹ s⁻¹] | Ratio: KD with MTX / KD without MTX [5] | Kd [6] [nM] | koff [6] [s⁻¹] | kon [6] [M⁻¹ s⁻¹] | Binder |
| --- | --- | --- | --- | --- | --- | --- | --- | --- | --- | --- | --- | --- |
| – | – | – | – | – | 2530 | 0.13 | 50000 | 9.5 | 266 | 0.022 | 82000 | P15_F02 scFv-Fc fusion (scFv, V domains shown, Tested as scFv-Fc fusion) VH: QVQLVESGGGLVQAGGSLRLSCAASRRSSRSWAMHWVRQAPGKGLEWVAVISYDGRLKYYADSVKGRFTISRDNAEYLVYLQMNSLRAEDTAVYYCAAARDVDGSGYDTIDVWGQGTLVTVSS VL: not shown |
| – | – | – | – | – | 1390 | 0.033 | 24000 | 7.5 | 185 | 0.013 | 71000 | P08_D06 scFv-Fc fusion (scFv, V domains shown, Tested as scFv-Fc fusion) VH: QVQLVESGGGLVQAGGSLRLSCAASRRSSRSWAMHWVRQAPGKGLEWVAVISYDGRLKYYADSVKGRFTISRDNAEYLVYLQMNSLRAEDTAVYYCAADDDGDVYAGYSYGGFDYWGQGTLVTVSS VL: not shown |
| – | – | – | – | – | 480 | 0.073 | 150000 | 1.3 | 360 | 0.071 | 200000 | P08_E05 scFv-Fc fusion (scFv, V domains shown, Tested as scFv-Fc fusion) VH: QVQLVESGGGLVQAGGSLRLSCAASRRSSRSWAMHWVRQAPGKGLEWVAVISYDGRLKYYADSVKGRFTISRDNAEYLVYLQMNSLRAEDTAVYYCAADGKGAAWSEVDEPDVWGQGTLVTVSS VL: not shown |
| – | – | – | – | – | – | – | – | > 11 | 823 | 0.27 | 330000 | P07_H08 scFv-Fc fusion (scFv, V domains shown, Tested as scFv-Fc fusion) VH: QVQLVESGGGLVQAGGSLRLSCAASRRSSRSWAMHWVRQAPGKGLEWVAVISYDGRLKYYADSVKGRFTISRDNAEYLVYLQMNSLRAEDTAVYYCAAGFDWGWDSSDIYSAMDYWGQGTLVTVSS VL: DIQMTQSPSSLSASVGDRVTITCRASQNIGRYLHWYQQKPGKAPKLLIYSASNLQSGVPSRFSGSGSGTDFTLTISSLQPEDFATYYCQQSYSSPFTFGQGTKVEIK |
| – | – | – | – | – | 25 | 0.00072 | 29000 | 3.9 | 6.3 | 0.00067 | 110000 | P14_E03 scFv-Fc fusion (scFv, V domains shown, Tested as scFv-Fc fusion) VH: QVQLVESGGGLVQAGGSLRLSCAASRRSSRSWAMHWVRQAPGKGLEWVAVISYDGRLKYYADSVKGRFTISRDNAEYLVYLQMNSLRAEDTAVYYCAAAPRVDWSDVSSGIDYWGQGTLVTVSS VL: QSVLTQPPSASGTPGQRVTISCSGSISNIGTNNVYWYQQLPGTAPKLLIYRNNQRPSGVPDRFSGSKSGTSASLAISGLRSEDEADYYCSAWDDSLSGVVFGTGTKLTVL |
